Assay results: PMC3828522

Molecular target: biotin-YY1 spacer peptide (human) (UniProt P25490)
Assay: SPR

Sequence of biotin-YY1 spacer peptide (human) (P25490 199-228): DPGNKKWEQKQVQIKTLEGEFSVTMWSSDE
Sequence of SFMBT2 4MBT domain, human (domain or fragment) (Q5VUG0 whole entry, the tested form may be a part): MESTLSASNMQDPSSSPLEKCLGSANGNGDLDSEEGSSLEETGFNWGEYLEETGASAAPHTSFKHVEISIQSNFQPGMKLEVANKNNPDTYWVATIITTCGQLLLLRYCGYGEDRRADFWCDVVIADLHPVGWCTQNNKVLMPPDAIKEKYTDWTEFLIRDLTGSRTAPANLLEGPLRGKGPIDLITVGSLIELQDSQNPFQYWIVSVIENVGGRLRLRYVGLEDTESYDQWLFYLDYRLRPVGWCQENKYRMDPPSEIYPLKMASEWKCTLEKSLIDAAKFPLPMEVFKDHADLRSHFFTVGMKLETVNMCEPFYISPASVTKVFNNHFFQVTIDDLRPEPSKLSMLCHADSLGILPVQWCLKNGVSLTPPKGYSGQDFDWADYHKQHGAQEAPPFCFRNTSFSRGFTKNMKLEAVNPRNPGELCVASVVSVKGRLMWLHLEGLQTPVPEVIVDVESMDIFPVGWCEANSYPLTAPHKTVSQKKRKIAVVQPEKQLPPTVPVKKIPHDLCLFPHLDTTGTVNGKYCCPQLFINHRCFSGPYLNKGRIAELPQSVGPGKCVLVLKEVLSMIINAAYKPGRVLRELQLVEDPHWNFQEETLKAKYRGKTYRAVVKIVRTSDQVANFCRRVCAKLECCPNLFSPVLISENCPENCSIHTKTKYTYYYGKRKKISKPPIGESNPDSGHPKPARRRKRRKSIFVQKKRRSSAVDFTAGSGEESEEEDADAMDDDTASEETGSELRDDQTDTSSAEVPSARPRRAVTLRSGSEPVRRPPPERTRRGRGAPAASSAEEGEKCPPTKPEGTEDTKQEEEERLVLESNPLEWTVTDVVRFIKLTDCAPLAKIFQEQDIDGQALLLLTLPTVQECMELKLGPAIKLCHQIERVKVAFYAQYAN

“SFMBT2 4MBT domain, human (domain or fragment)” was tested, and the fold lower affinity than L3MBTL2 and MBTD1 was 2 fold and the fold weaker affinity than the Drosophila complex was 50 fold.
